Blank lines part the entries; values can stand above or below the binder they belong to.
How the values were obtained:
[1] = biological target: T1, tryptophan-free recombinant porcine amelogenin (rP172-W25Y/W45Y/W161Y) (porcine, UniProt P45561 17-189, W25Y | W45Y | W161Y); test: other fluorescence titration; intrinsic tryptophan fluorescence (excitation 295 nm, peak wavelength); 8 uM tryptophan-containing peptide before and after 40 uM rP172-W0, no LUVs; 10 mM Tris-HCl, 50 mM NaCl, final pH 7.4; settings: both partners purified
T1 construct: all three tryptophans changed to tyrosine; also called rP172-W0; recombinant Amel
T1 sequence (looked up): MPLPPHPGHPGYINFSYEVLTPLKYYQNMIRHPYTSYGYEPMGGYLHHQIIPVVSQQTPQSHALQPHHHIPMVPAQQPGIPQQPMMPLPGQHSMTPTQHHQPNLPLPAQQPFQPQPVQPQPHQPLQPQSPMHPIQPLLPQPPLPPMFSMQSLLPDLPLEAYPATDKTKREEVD

[2] = biological target: spin-labeled xAB2N and AB2 (all residues); test: EPR (continuous-wave, site-directed spin labelling); 15 uM spin-labeled peptide in 50 mM Tris, pH 7.6, 50 mM NaCl; rP172-W0 added to 15 uM, then to 75 uM; all in solution

binding result [1]: binds
B1: xAB2N, extended AB2 N-terminus (peptide, UniProt O55189 51-86, looked up)
peptide: TMRQLGSLQGLNALSQYSRLGFGKALNSLWLHGLLP
notes: source: synthetic peptide (Biomer Technologies)

difference between inverse central linewidths (1/LW) of EPR spectra with and without Amel [2]: 0.16 to 0.35 G.^-1
B2: tryptophan-free recombinant porcine amelogenin (rP172-W25Y/W45Y/W161Y) (natural protein)
chain: T1 sequence (looked up)

binding result [1]: binds
B3: AB2N, the first 20 amino acids of the AB2 sequence (peptide, UniProt O55189 67-86, looked up)
peptide: YSRLGFGKALNSLWLHGLLP
notes: Mouse ameloblastin (Ambn), the first 20 residues of AB2; residues 3-20 of AB2 are stated to be residues 69-86 of mouse Ambn, so the peptide is 67-86; also called AB2 N-terminus; source: synthetic peptide (Biomer Technologies)

From article PMC9966149, “The Dynamic Interactions of a Multitargeting Domain in Ameloblastin Protein with Amelogenin and Membrane” (International Journal of Molecular Sciences, 2023)
